According to patent US20070269427A1 (GlaxoSmithKline, published 2007):
Substitutions are numbered along the chain they refer to. Values belong to the binder of their own block, whether it stands above or below them.

Tests used:
[1] = target: T1, rat MAG-Fc fusion protein (R&D systems; 538-MG) (rat; human, UniProt P07722 20-516); assay: direct binding ELISA on coated rat MAG-Fc (FIG. 6)
T1 construct: Bought reagent; not shown: human Fc
T1 sequence (looked up): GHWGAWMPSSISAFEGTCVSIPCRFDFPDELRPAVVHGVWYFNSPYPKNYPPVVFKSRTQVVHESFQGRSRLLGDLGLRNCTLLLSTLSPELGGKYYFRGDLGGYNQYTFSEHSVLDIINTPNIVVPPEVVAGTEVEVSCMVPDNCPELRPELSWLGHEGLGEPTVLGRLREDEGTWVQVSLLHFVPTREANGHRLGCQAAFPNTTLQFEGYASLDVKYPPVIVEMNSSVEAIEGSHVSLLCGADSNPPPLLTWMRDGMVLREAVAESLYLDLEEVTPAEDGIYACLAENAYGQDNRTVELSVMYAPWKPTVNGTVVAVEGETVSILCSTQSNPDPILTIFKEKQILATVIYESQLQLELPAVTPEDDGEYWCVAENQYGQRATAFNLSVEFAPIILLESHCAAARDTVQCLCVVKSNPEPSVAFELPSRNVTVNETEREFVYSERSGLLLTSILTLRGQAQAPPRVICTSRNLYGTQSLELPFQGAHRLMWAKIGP
Description: (§1) 96-well Nunc Maxisorp plates were coated overnight at 4° C. with rat MAG-Fc fusion protein (2.5 μg/ml; R&D Systems; Cat.No. 538-MG) in PBS. Plates were washed twice with PBS containing Tween20 (0.1% v/v; PBST) and blocked with PBS containing BSA (1% w/v) for 1 h at room temperature (RT). Purified humanised antibody was adjusted to a starting concentration of 5 μg/ml in blocking buffer and then serial diluted. Antibody samples were incubated 1 h at RT and plates then washed 3× with PBST. Secondary antibody (Goat anti-human light chain specific-peroxidase conjugate; Sigma A-7164) was added diluted 1/5000 in blocking buffer and incubated for 1 h at RT. Wells were washed three times as above and binding detected by adding substrate (OPD tablets dissolved according to instructions; Sigma P-9187). Colour development was monitored and the reaction stopped using 3M H₂SO₄. Colour development was read at 490 nm.

[2] = target: T1, rat MAG-Fc fusion protein (R&D systems; …); assay: direct binding ELISA on coated rat MAG-Fc, purified antibody
Description: as §1

binding result [1]: binds
B1: Humanised anti-MAG antibody BVh1/CVl1 (antibody, V domains shown)
VH: QVQLVQSGSELKKPGASVKVSCKASGYTFTNYGMNWVRQAPGQGLEWMGWINTYTGEPTYADDFTGRFVFSLDTSVSTAYLQISSLKAEDTAVYYCARNPINYYGINYEGYVMDYWGQGTLVTVSS
VL: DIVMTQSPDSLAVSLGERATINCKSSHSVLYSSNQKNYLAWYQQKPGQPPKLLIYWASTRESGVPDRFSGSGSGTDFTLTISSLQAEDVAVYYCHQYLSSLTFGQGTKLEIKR
notes: also called BVh1/CVI1

binding result [2]: binds
B2: Humanised anti-MAG antibody BVh3/CVl3 (antibody, IgG1, V domains shown)
VH: B1 VH with V93T, Y95F
VL: DIVMTQSPDSLAVSLGERATINCKSSHSVLYSSNQKNYLAWYQQKPGQPPKLLIYWASTRESGVPDRFSGSGSGTDFTLTISSLHTEDVAVYYCHQYLSSLTFGQGTKLEIKR
notes: also called BVh3/CVI3
